{"source": "patent US12043671B2", "about": "“Antibodies targeting an amphiregulin-derived cell surface neo-epitope” (Gundersen Lutheran Medical Foundation, Inc., priority 2021, dated 2024)", "molecules": {"B1": {"name": "1A3: Rabbit monoclonal IgG specific to cleaved AREG; VH SEQ ID NO: 3, VL SEQ ID NO: 4 (antibody, V domains shown)", "VH": "QSVKESEGRLVTPGTPLRLTCTVAGYSLSRYHMCWVRQAPGKGLEWIGMIGGSGRTDYASWAKGRFTISKTSTTVDLKITSPTTEDTATYFCSTVYTDSDGDFWGPGTLVTVSS", "VL": "AELDMTQTPSSKSVPVGGTVTINCQASESVYSNDRLAWFQQKPGQPPKLLIYYASTLASGVPSRFKGSGSGTQFTLTISDLECADAATYYCQSCYDMSSYGVAFGGGTELEIL", "modifications": "1A3 antibody, Heavy chain; 1A3 antibody, Light chain"}}, "target": "T1, peptide representing the neo-epitope of the ADAM17-cleavage product of human AREG (Homo sapiens, UniProt P15514)", "T1 construct": "host or cells: synthetic peptide", "experiment": "ELISA of rabbit IgG candidates against peptides representing cleaved and full length AREG", "type": "binding", "from_the_text": "FIGS. 1A-1C. Isolation of antibodies that selectively recognize a peptide representing cleaved AREG. FIG. 1A: Schematic representation of the AREG cleavage and EGFR activation process, one consequence of which is the internalization of the small transmembrane fragment that remains cell-associated after TACE/ADAM17-mediated cleavage. FIG. 1B: Schematic representation of phage panning strategy using a peptide representing the cleaved AREG neo-epitope adhered to the well and a peptide representing the non-cleaved AREG region in the liquid phase.\nRabbit monoclonal IgG antibodies specific to cleaved-AREG were identified in contracted screening (Oak Biosciences Inc., Sunnyvale, CA, USA) using a recombinant Rabbit naïve phage display library (scFv format, VK-linker-VH) screening platform after four rounds of panning and ELISA validation. For panning, phage was selected against a peptide modeling the ADAM17-cleaved cell-associated epitope of AREG,^12 represented by the N-terminal region of THSMIDSSLSKI (SEQ ID NO: 2), and counter-selected against a peptide spanning this region (SMKTHSMIDSSLSKIAC; SEQ ID NO: 9), representing uncleaved AREG. […] GMF-1A3, referred to hereafter as simply “1A3”, was the antibody chosen for further characterization in this Example.", "data": [{"molecule": "B1", "values": [{"measurement": "selectivity for cleaved AREG by ELISA", "setting": "IgG format, cleaved vs uncleaved AREG peptide", "value": "selectivity for cleaved AREG was confirmed"}, {"measurement": "binding ratio of cleaved AREG to intact AREG as determined by ELISA", "setting": "compared among the three antibodies", "value": "highest binding ratio"}]}]}
